What was measured:
[1] = target: wild-type Aequorea green fluorescent protein (Aequorea victoria); conditions: scale: relative rate
[2] = target: GFP N-terminal phosphorylation mutant 1MRKGSCLF (Aequorea victoria); conditions: scale: relative rate
[3] = target: GFP N-terminal phosphorylation mutant 1MSKRRDSL (Aequorea victoria); conditions: scale: relative rate
[4] = target: GFP N-terminal phosphorylation mutant 1MRRESLLF (Aequorea victoria); conditions: scale: relative rate
[5] = target: GFP N-terminal phosphorylation mutant 1MRRDSCLF (Aequorea victoria); conditions: scale: relative rate
[6] = target: GFP N-terminal phosphorylation mutant 1MRKGSLLF (Aequorea victoria); conditions: scale: relative rate
[7] = target: GFP N-terminal phosphorylation mutant 1MSRRDSCF (Aequorea victoria); conditions: scale: relative rate
[8] = target: GFP phosphorylation mutant 25RRFSV (Aequorea victoria); conditions: scale: relative rate
[9] = target: GFP phosphorylation mutant 172RRGSV (Aequorea victoria); conditions: scale: relative rate
[10] = target: GFP phosphorylation mutant 68RRFSA (Aequorea victoria); conditions: scale: relative rate
[11] = target: GFP phosphorylation mutant 214KRDSM (Aequorea victoria); conditions: scale: relative rate
[12] = target: GFP phosphorylation mutant 155KRKSGI (Aequorea victoria); conditions: scale: relative rate
[13] = target: GFP N-terminal phosphorylation mutant 1MRRRRSII (Aequorea victoria)
[14] = target: GFP N-terminal phosphorylation mutant 1MSRRRRSI (Aequorea victoria)
[15] = target: GFP N-terminal phosphorylation mutant -1… (Aequorea victoria)
[16] = target: GFP N-terminal phosphorylation mutant -2… (Aequorea victoria)
[17] = target: GFP N-terminal phosphorylation mutant -3… (Aequorea victoria)

Relative rates of phosphorylation (32P incorporation) [1]: 1
Relative rates of phosphorylation (32P incorporation) [2]: 5.1
Relative rates of phosphorylation (32P incorporation) [3]: 5.5
Relative rates of phosphorylation (32P incorporation) [4]: 3
Relative rates of phosphorylation (32P incorporation) [5]: 3.7
Relative rates of phosphorylation (32P incorporation) [6]: 1.6
Relative rates of phosphorylation (32P incorporation) [7]: 2.1
Relative rates of phosphorylation (32P incorporation) [8]: 1.75
Relative rates of phosphorylation (32P incorporation) [9]: 1.57
Relative rates of phosphorylation (32P incorporation) [10]: 0.6
Relative rates of phosphorylation (32P incorporation) [11]: 1.88
Relative rates of phosphorylation (32P incorporation) [12]: 2.5
% Change in fluorescence upon phosphorylation [13]: 70%
% Change in fluorescence upon phosphorylation [14]: 40%
% Change in fluorescence upon phosphorylation [15]: 43%
% Change in fluorescence upon phosphorylation [16]: 15%
% Change in fluorescence upon phosphorylation [17]: 70%
Substance: protein kinase A catalytic subunit (enzyme)

From patent US5925558
